Measurements published in the DeepSol protein solubility set.

test: soluble on expression in E. coli; label from the status in PepcDB or PDB records

Sequence | soluble on expression in E. coli
GPGSMLATFFGRRAEPEFKVVCDPESIVFPVDFDAPDYPYEQAFEEADAYVRKLPTRGVVPVSDVLRLQFYSLFKQATEGDINEDVKQPSMLRDWEGYWKVYGWRKCRGMTRERARDLYTDLLDLQIRKHCSFVWGAPSGEDRWAAFYDGVRIIRNLPKGGYYLPDSLRAHFYALYKQALVGNLSDFQKTPAAFSEKYKWLRSRPSKAGFDQMRYDEWAALKGMSCEKAKRMYCKDIFKSAAMCGYVWAPPGTADHLKVIGDQTSAKTLKKRTDADEHAERIAGATHLTMEEAMDAVGVHLSMVERLTMHSFTKKEQTAAARTAEEAAGRKKREEKAEVKRRGVAGSHVDLNKGMAFARPKAEESTEATVTEKTEETEAKEDAERRLEAQGTDKDPQSVCNLCGSFAKDIASDAEAPEKVKESGAAAAAAKDCTAASTSPAPVPKLQASAKVAEASKILPSKSEPVLKKEPAVKGTSKGAKSSHQAKNGAKKGPAGKRTKAN | soluble
GKRKLATISTKGKVKDLTDTLVGSSIGRPYISGGFTASSEGYMAFTQGSSSRPADVAVINTRKKLVKLTQLNEDLLAHKNLGKVTEINYKSSFDDEPIQGWYVTPPNFDPKKKYPLILEIHGGPHLAYGPHFSAELQRFAAQGYVVFYDNHRGSSSYGERFAMLLKYKYSSKEDFADHNSGVDAMLGLGFIDEGNLFIAGGSAGGIATAYAIGLTDRFSAAVVVKPVINWLSKVLTADSGLGQIPTQFPGMPWEHVEHYWKRSPMSLVGNVTTPTMLMTGEEDLRTPMAQTEQFYQALKLRKIDTVLVKVPGSPHGIAGKPSRMITKIEHTLAWFEKYKT | not soluble
MGSDKIHHHHHHMEQYKEVHINSLNKEELEKLAKMGQLIDVRTKEEYELGHINGSTLHPVEEIKSFNKNSNKTYYIHCKSGNRSTKACDYLAKQGYDVVNLKGGYKDYEAKNFNSAPLIEKDIEIKENRKQFDFRGLQCPGPIVNISKEINNISTGEQIEVTVTDPGFNSDIKSWAKQTGNTLVNLTEEANVINAIIQKEKPKEFEINDTATGTTIVLFSGELDKAVAAMIIANGAKAAGKDVTIFFTFWGLNALKKAQSTRVKKKGISKMFDLMLPKDPIHMPLSKMNMFGLGNIMMRYVMNKKNVDSLYSLIDQAIDQDIKLIACTMSMDVMGISKEELRDEVDYGGVGTYIGHTEQANHNLFI | not soluble
MGSDKIHHHHHHMDTSIKKKRVRGRLLREMIEDAAFEVIEKEGLAGFSMRKLAAALGCEAMSIYHHFPSVAHLHEALVDRLVGALEMPDASLPWRQRMRIAIEDFRSIGRDHPAYATFFVTYRMNSPICLAWLNGILSLFRDGGFDTELSARLFRAVGYYLMGAVLDENAGYAKGPSAVNTVSDEQLARDFPNVMAAGRFFGTAEFDKTFELGLDMLLDEMERLRDGADAGQLSGKV | not soluble
GMSSKEEILSILEAFASTERMGSFFLDNATADFLFIRPSGNPLDAKGFENMWSSGDLVLESAEITKVHKFELLGSNAAICVFTLGSKFTYKGTQNDDLPTVTSIFKKIDEKWKVAWMQRSSGQSDMTLWNE | soluble
MGSDKIHHHHHHMTFGLLHRWLTDMGMTISKNTLRNWLTKDKTYLDELVCVLKSIALEKDSIVNCDETWCKVRKYDHYKKCYIGVLVNKARKTAIFFYENGSCGRDVLTDFLGDAELKSIMSDGYNAYVFIGNELKLGRFKDTVHQVCMSHAKNKFVKASNQGGEPTAERFSEILKEFFMRDREYDDAGLTPKERFQERQSLETKELLIELRSLLDSEQSKDSEFRSRYYKEALNYLNRFRKEIFAYLDDGELPIDNNLAERTIRKLTTQRNNSLHYGSDAGAEMAATYHSVIGTVKLLGSSIWNFIGTFFKNIFNGCRDYVNMVPDKITLATSQC | not soluble
MGHHHHHHSHMFIASKKSYFEAVYRSTVSSHSEEFWKSDDPVYFTQYKKQCNRLPNAYLGTLHSASKYSENFRHYVATFSNSPLDFPQSVFNERNPCEYSVPYLDSALQCSAKTLVGCSVSTTERNEYEVCKEATRCFKDAMSHKVLKVFLSNLSWFLKGHYKSKQAFLEPFQKQLILHSFMFVASIKCPETTTKLFDEFKFLLDMLYFDNTDLLTFLQKSPAFLIPRRHGKTWIVTAIISMLLTSVDDLHIGYVAHQKHVSLAVFLEISNILLAWFPRKNIDIKKENGVILYSHPGKKSSTLMCATCFNKNVSVI | not soluble
MTFEKIEEAYQLLLENCQLIENDLKTHIYDAIVEQNSFYLGAEGASPQVAQNSDKLKALCLTKEEWRKAYQFLFIKAAQTEQLQANHQFTPDAIGFILLYLLEQLSDKDSLEVLEIGSGTGNLAQTLLNNTSKSLDYVGIELDDLLIDLSASIAEIMDSSAHFIQEDAVRPQLLKESDIVISDLPVGYYPNDDIAKRYKVASSDKHTYAHHLLMEQSLKYLKKDGFAIFLAPVNLLTSPQSQLLKQWLKDYAQVVTLITLPDSIFGHPSNAKSIIVLQKQTDHPMETFVYPIRDLKLAENIHDFMENFKKWKLSNVN | not soluble
MAAKKDYYAILGVPRNATQEEIKRAYKRLARQYHPDVNKSPEAEEKFKEINEAYAVLSDPEKRRIYDTYGTTEAPPPPPPGGYDFSGFDVEDFSEFFQELFGPGLFGGFGRRSRKGRDLRAELPLTLEEAFHGGERVVEVAGRRVSVRIPPGVREGSVIRVPGMGGQGNPPGDLLLVVRLLPHPVFRLEGQDLYATLDVPAPIAVVGGKVRAMTLEGPVEVAVPPRTQAGRKLRLKGKGFPGPAGRGDLYLEVRITIPERLTPEEEALWKKLAEAYYARA | soluble
MSTNEITKRLPNLTSRRALLLYSLPVLVAIGVSHSLKESSLTKTIALNLPESQVVERILDATTAEVVTPPNFEYQIQAGDNLSTIFSQLGFGYSSLMKVMETDLNYLALDTLKPGNTLRFWRNDATGELEKMELQFSIADKVVYQLNSDGGYDFTDISIPGVWRQEPLVGVIQGSFSSSANRLGLSSAEISQVVSLLKEQVNFGRDLRAGDRFEVVRRSQTINGVSTGKNEIEAIKIYNRGREITAYLHTDGQFYNAKGESLQRAFQRYPVSRSWRISSGFNPNRLHPVTGRVAP | not soluble
MASSSSAALRPFGTARLTPGRQTGRQTQQQISAPEPMIAIALSDMEYLMRSARSSRSSGRSERQPGCTCCCHIAAGVTVIPRVARFSIEGGLSTHTLMNHSDNRIAVKITCSDNNMYRVTPVYATVEPGQSLPLHIARITSDLIKRDRLCVNILEADGNKEAREIFKKNANTRAPASINMALEATNDNQNHHHQE | not soluble
MSLRIIVVGGGKVGTALCRSLVAEKHDVVLIEKKENVLKRVTKQHDIMGIVGNGANYKILEQAEVKNCDIFIAITDRDEVNMISAVLAKKMGAKETVVRMRNPEYSNPYFKDKNFLGFSSVVNPELLAAQYIANTIEFPNATSVEHFANGRVMLMEFKILEGNKLCHTSMSQIRKKFGNIVICAIERDGKLIIPDGDATIQVKDKIFVTGNRIEMILFHNYVKNKVVKNLMVIGAGRIAYYLLNILKNTNTHVKLVELNQEQAEYFSQEFPNVPVVHGDGTAKNILLEESVTSFDAVATLTGVDEENIITSMFLESIGIPKNITKVNRTSLLEIIDDKQLSSIITPKRIAVDHVMHFVRGRVNAQDSNLEAMHHIANDRIETLQFEIKETSKLANRSLASLKLKQNILIAAIIRNNKTIFPTGEDVLTVGDRIVVITLLKNITRTSDMLAREGHHHHHH | soluble
MSLAMKKHLFTLTLSSVLAIPAVSHAEFKGGFADIGIHYLDWTSRTTEKSSTKSHKDDFGYLELEGGANFSWGEMYGFFDWENFYNDRHDKPGSEQRYTFKNTNRIYLGDTGFNLYLHAYGTYGSANRVNFHDDMFLYGIGYNFTGSGWWFKPFFAKRYTDQTYYTGDNGYVAGWVAGYSFMLGSEKFTLTNWNEYEFDRDATYAAGNGGKEGLNGAVALWWNATSHITTGIQYRYADDKLGEDFYQDAIIYSIKFNFEGHHHHHH | not soluble
MSLSSERLIYLPLGGAGEIGMNAYVYGYGKPGKERLIVVDLGVAFPDMDTSPGVDLIIPDIAWLEERRDQIEAIFITHAHEDHIGAVAHTYDRLRAPIYTRKFTANIAKRKMDEYGHPDDAVTTVAPWPQQTTVGPFKVGFLPMSHSIPESSSLVIDVAGDRLIHSGDFKIDMTPGVGEPYDPELWADVSKDGVKALICDSTNVFSQHAGRSEATVGPEIEKLLGTAQGMVVATTFASNVARVKTLADAGERAGRSVVLLGRAMKRMVEASLETGVMKDFPPVVSPEEARGIPRENLMLLVTGSQGERRAASAQLARGKYMGLEMKEGDMFLFSSKTIPGNERGVIKVINAFSEMGVDIVDDSSGLYHVSGHANRPDLETLHDVVKPQILIPMHGEHRHLREHTKIANAKGMKGVLAVNGMMIDLSGNEPKVVEYVDSGRTYLDGSTQIGAMDGVVRDRIRMALNGHVTVTVILDENDEALGDPWVDAMGLPEQGRSKTSLVDVLEADLAQFLGRANAKTLRDDDKLHDGLKRTVRQSANDEIGKKPEVTIVVSRLSEGHHHHHH | soluble
MVVTRIAPSPTGDPHVGTAYIALFNYAWARRNGGRFIVRIEDTDRARYVPGAEERILAALKWLGLSYDEGPDVAAPTGPYRQSERLPLYQKYAEELLKRGWAYRAFETPEELEQIRKEKGGYDGRARNIPPEEAEERARRGEPHVIRLKVPRPGTTEVKDELRGVVVYDNQEIPDVVLLKSDGYPTYHLANVVDDHLMGVTDVIRAEEWLVSTPIHVLLYRAFGWEAPRFYHMPLLRNPDKTKISKRKSHTSLDWYKAEGFLPEALRNYLCLMGFSMPDGREIFTLEEFIQAFTWERVSLGGPVFDLEKLRWMNGKYIREVLSLEEVAERVKPFLREAGLSWESEAYLRRAVELMRPRFDTLKEFPEKARYLFTEDYPVSEKAQRKLEEGLPLLKELYPRLRAQEEWTEAALEALLRGFAAEKGVKLGQVAQPLRAALTGSLETPGLFEILALLGKERALRRLERALA | soluble
ATFIEQQVGGNLTEASLALRLPTLLPYNGVLFLGNSLLVRLVDALTQLPESYPVYTNRGASGIDGLLATAAGIGIGSNKPVVAVIGDTSTLYDLNSFALFKNVTQPTLIFVINNNGGAIFDMLPVDEQVKDQFYRLPHNGDFSQIAAMFDLKYAHPYTWADLNSVVKQAYSRRKATLIEIKTNPSDG | not soluble
MSLKWIDSHIHVDQYKDEEKSRLLKDVENSKEIQGLIAVSMNYQSSKEILSLAKRYSFVHPAVGFHPEQPIHKEECEKIYKLIEDHVEDIVAIGEVGLPYYLRKEDEHIAINSYISVLQRFVELASKYDLPIVLHAVYEDADVVCDLLEKHKVSRAHFHWFKGSETTMERMMRNGYYISITPDVLHKEKIRKIVSYYPLEYMMVETDGPWGFQEGVMTHPGMIREVLKEISVIKNVAVDKVAETIYENTIQFYLKGEGHHHHHH | soluble
MNDQELRAYLSQAKTIAVLGAHKDPSRPAHYVPRYLREQGYRVLPVNPRFQGEELFGEEAVASLLDLKEPVDILDVFRPPSALMDHLPEVLALRPGLVWLQSGIRHPEFEKALKEAGIPVVADRCLMVEHKRLFRGPLPL | soluble
MKVVAAYLLAKLSGNENPSVADLKKIVESVGAEIDQEKIDLFFSLIKDRDVTELIAVGREKMAALSSGGGAVAVASGGGGGAAPAAEPASVESKKKEEEKEESEDDGGMMSLFD | soluble
MSLTQAQGAQQYVNINPPMPSDTPGKIEVLEFFAYTCPHCAAIEPMVEDWAKTAPQDVVLKQVPIAFNAGMKPLQQLYYTLQALERPDLHPKVFTAIHTERKRLFDKKAMGEWAASQGVDRAKFDSVFDSFSVQTQVQRASQLAEAAHIDGTPAFAVGGRYMTSPVLAGNDYAGALKVVDQLIVQSREGHHHHHH | soluble
